Laboratory results taken from patent US8034572B2, “Receptor for GDNF family ligands” (priority 2006, dated 2011).
Where “and” joins values, the source holds several entries; their conditions need not be identical. Equal values may be shown once. Read-outs that look alike come from different tables or passages of the source. Values belong to the molecule of their own block, whether it stands above or below them.

Assays:
GDNF [1] = biological target: T1, GDNF (Homo sapiens, UniProt P39905); test: SPR: competition of GDNF binding to heparin-BSA cuvette by heparin and desulfated heparins; conditions: competing out GDNF binding to heparin-BSA cuvette
T1 construct: purchased PeproTech, Ltd. or R&D Systems, Inc
T1 sequence (P39905 78-211 limits assumed): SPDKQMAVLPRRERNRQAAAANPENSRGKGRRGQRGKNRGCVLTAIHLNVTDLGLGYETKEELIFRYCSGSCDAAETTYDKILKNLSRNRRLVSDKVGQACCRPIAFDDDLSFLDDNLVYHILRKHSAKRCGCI
Method: (§1) Specifically desulfated heparins (Takano et al., 1998) were used to assess the involvement of different sulfate groups in the GDNF-heparin interaction by following direct binding to GDNF cuvette, or by competing out GDNF binding to the heparin-BSA cuvette. Dissociation constants were determined from direct binding using increasing GDNF concentrations and by fitting the data to R=(Rmax*C)/(Kd+C) for heparin. For desulfated heparins, the best fit was achieved using equation R=(Rmax1*C)/(Kd1+C)+(Rmax2*C)/(Kd2+C), where Kd1 and Kd2 are apparent dissociation constants derived for two heparin sites of different affinities with maximum equilibrium response Rmax1 and Rmax2, respectively.

GDNF [2] = biological target: T1, GDNF; test: SPR: direct binding of heparin or desulfated heparins to GDNF cuvette
Method: as §1

[3] = tested on: rat embryonic hippocampal neurons; test: Neurite outgrowth assay in E17 rat hippocampal neurons; type: cell-based; conditions: E17 rat hippocampal neurons
Method: Hippocampi were dissected from E17 embryonic rat brains under the microscope and transferred to the preparation media (HBBS without Ca^2+ and Mg^2+ supplemented with 1 mM sodium pyruvate (Gibco) and buffered by 10 mM Hepes pH 7.2), then partially digested by papain and triturated in the preparation media supplemented with DNase I. Cells were washed with HBBS containing Ca^2+ and Mg^2+ and transferred to the growth media (Neurobasal media with B27 supplement, 2 mM L-glutamine, 25 μM glutamic acid and penicillin and streptomycin (Gibco)). For enzymatic treatments neurons were kept in the growth media supplemented with 0.2% BSA at +37° C. for one hour. After the treatment cells in the same media were seeded on the protein-coated cover slips (see above) and after 10 min, the media was changed for B27-free media. Neurons were incubated at +37° C., 5% CO2 for 18 hours.
For immunocytochemistry neurons were washed with PBS and fixed with 4% PFA, permeabilized with 0.1% Triton X-100 and stained with rabbit polyclonal antiserum to Protein Gene Product 9.5 (Affiniti), neuron-specific Class III tubulin-βIII clone Tuj1 antibodies (BABCO) or with antibodies against the neurofilament triplet, 13AA8 (Arumäe et al., 1993). Secondary antibodies were goat anti-rabbit or anti-mouse Alexa488-conjugated (Molecular Probes).
The immunostained cultures were viewed using the ×20 objective of a Zeiss Axioplan 2 fluorescent microscope (Zeiss). Neurons with at least two times longer than cell body diameter processes were considered process-bearing. Three cover slips were used in parallel and 100 neurons per cover slip were counted. Results were derived from 3 to 5 independent experiments.

SHEP cells = test: SHEP cell adhesion and spreading assay on immobilized proteins; type: cell-based, human; conditions: for adherence and spreading of SHEP cells on immobilized protein: protein immobilized on plastic microplate
Method: Cell adhesion assays were essentially performed as described elsewhere (Weinacker et al., 1994). To prepare protein-coated surfaces the protein of interest (10 μg/ml in PBS) was applied to 96-well ELISA (Greiner) plates or to glass cover slips for 12-18 hours at +4° C. After incubation, the surfaces were washed with PBS and blocked with 1% globulin-free BSA for two hours. Some GDNF coated surfaces were incubated with 20 μg/ml of G-90 (Amgen) GDNF function-blocking antibodies (Xu et al., 1998) for 2 hours at room temperature.
Subconfluent SHEP cells were harvested in PBS supplemented with 10 mM EDTA for 5 min at 37° C. Cells were washed with incubation buffer (RPMI 1640, 0.2% BSA, 15 mM HEPES pH 7.2) and 10000-40000 cells/well plated on the protein coated surface. Plates were centrifuged for 5 min at 10 g and incubated for one hour at 37° C. in 5% CO2. After incubation cells were washed with PBS, fixed with methanol supplemented with crystal violet for 15 min at room temperature and washed again with PBS. The remaining cells were counted using a Leica DMIRB inverted microscope with 10× objective in 5 fields per well.
Some cells were pretreated with heparinase III, PI-PLC (see above), 0.3 U/ml chodroitinase ABC for one hour at 37° C., 5% CO2, or with 20 μg/ml of NCAM blocking antibodies (AB5032, Chemicon Inc.) for 15-30 min on ice.
After one hour of incubation in serum-free medium unattached cells were removed by washing. The remaining cells were stained and counted on Leica DMIRB inverted microscope with a 10× objective in 5 fields per well and the resulting cell number was calculated for the whole well.
Live SHEP cells spreading on immobilized GDNF were imaged for 20 minutes using the Till imaging system with an Imago-QE digital camera (Till Photonics) equipped with heating (+37° C.) and CO2 supply (5%) chambers.

[4] = SPR (IAsys): GFLs interaction with heparin-BSA cuvette; type: binding; conditions: for ka (×10^−5) (M^−1s^−1) / kdis: GFL in solution; for Kd = kdis/ka: from dynamics; for Kd: from equilibrium response
Method: (§2) The affinities of GFLs for heparin and heparin-like molecules (e.g. syndecan-3) were determined by plasmon surface resonance using the IAsys system (Affinity Sensors, Cambridge, UK). Planar aminosilane cuvettes (Affinity Sensors) were used for protein coupling to avoid problems with mass transport, which occur frequently with matrix surfaces. In the initial approach, heparin-BSA was immobilized to the cuvette surface using the manufacturer's instructions and different ligand concentrations were used to determine association (ka) and dissociation (kdis) rates using the IAsys Fastfit software. The dissociation constant Kd was determined from the binding dynamics as […], or from equilibrium response (R) using a simple Langmuir fit: R=(Rmax*C)/(Kd+C), where C is the ligand concentration. […] The dissociation constants were determined from binding dynamics and equilibrium response. The same cuvettes were used to test binding of heparan sulfate proteoglycan syndecan-3, which was purified as an ectodomain from early postnatal rat brains by HB-GAM affinity chromatography (Raulo et al., 1994).
(§3) Binding was analyzed using IAsys cuvettes with immobilized heparin-BSA or GFLs. The dissociation constant Kd was determined from dynamics of association and dissociation (Kd=kdis/ka), or from equilibrium response R (R=(Rmax*C)/(Kd+C), where C is ligand concentration).

[5] = SPR (IAsys): heparin interaction with GFLs cuvette; type: binding; conditions: for ka (×10^−5) (M^−1s^−1) / kdis: heparin in solution; for Kd = kdis/ka: from dynamics
Method: as §2, §3

[6] = Binding of ^125I-labeled GFLs to heparin-sepharose column, step NaCl elution; conditions: for NaCl concentration at elution from heparin-sepharose column: ^125I-GFLs, step NaCl gradient; for binding to heparin-sepharose column: ^125I-labeled GFLs
Method: GFL iodination was performed as described (Lindahl et al., 2001). Heparin-sepharose column (Amersham Biosciences) chromatography was performed to assess GFL binding to heparin. GDNF, ARTN, NRTN and PSPN were purchased from PeproTech, Ltd. or R&D Systems, Inc. GFLs were enzymatically labeled with carrier-free [^125I]NaI (Amersham Biosciences) by the lactoperoxidase method to a specific activity of 100000-200000 cpm/ng as described elsewhere (Lindahl et al., 2001). 15000-20000 cpm of iodinated GFLs, together with 10 μg of the same unlabeled protein as a carrier, were injected into a 1 ml heparin-sepharose column (Amersham Biosciences) in phosphate buffer pH 7.2 containing 100 mM NaCl and 10 mg/ml of BSA. After washing with 5 volumes of the same buffer, iodinated GFLs were eluted from the column by step elution (2 ml) with increasing NaCl concentration. The resulting fractions were counted on Rackbeta 1214 (LKB/Wallac) scintillation counter.

syndecan-3 ectodomain = biological target: T2, syndecan-3 ectodomain (Rattus norvegicus, UniProt P33671); test: SPR (IAsys): syndecan-3 ectodomain interaction with GFLs cuvette; type: binding; conditions: syndecan-3 ectodomain in solution
T2 construct: purified as an ectodomain from early postnatal rat brains; from tissue; host or cells: early postnatal rat brain
T2 sequence (P33671 45-387 limits assumed): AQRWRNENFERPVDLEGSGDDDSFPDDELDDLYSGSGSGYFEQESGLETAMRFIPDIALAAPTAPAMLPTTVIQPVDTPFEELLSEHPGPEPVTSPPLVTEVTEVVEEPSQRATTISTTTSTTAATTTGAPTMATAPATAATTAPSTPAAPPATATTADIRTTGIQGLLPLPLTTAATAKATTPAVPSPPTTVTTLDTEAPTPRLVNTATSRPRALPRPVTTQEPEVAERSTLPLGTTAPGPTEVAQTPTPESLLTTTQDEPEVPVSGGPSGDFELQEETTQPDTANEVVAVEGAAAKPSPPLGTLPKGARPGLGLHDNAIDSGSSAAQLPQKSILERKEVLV
Method: as §2, §3

GDNF-syndecan-3 complex = biological target: T3, GDNF-syndecan-3 complex (UniProt P33671+P39905); test: Chemical cross-linking of ^125I-GDNF to C6 cells and immunoprecipitation with anti-syndecan-3; type: cell-based, rat; conditions: heparin 1 μg/ml; HB-GAM 150-fold molar excess; added with ^125I-GDNF
T3 construct: the rat glioma C6 cell line, which expresses syndecan-3; endogenous in cells; host or cells: rat glioma C6 cells (syndecan-3); GDNF purchased from PeproTech or R&D Systems and iodinated
T3 sequence (P33671 45-442, one chain of several): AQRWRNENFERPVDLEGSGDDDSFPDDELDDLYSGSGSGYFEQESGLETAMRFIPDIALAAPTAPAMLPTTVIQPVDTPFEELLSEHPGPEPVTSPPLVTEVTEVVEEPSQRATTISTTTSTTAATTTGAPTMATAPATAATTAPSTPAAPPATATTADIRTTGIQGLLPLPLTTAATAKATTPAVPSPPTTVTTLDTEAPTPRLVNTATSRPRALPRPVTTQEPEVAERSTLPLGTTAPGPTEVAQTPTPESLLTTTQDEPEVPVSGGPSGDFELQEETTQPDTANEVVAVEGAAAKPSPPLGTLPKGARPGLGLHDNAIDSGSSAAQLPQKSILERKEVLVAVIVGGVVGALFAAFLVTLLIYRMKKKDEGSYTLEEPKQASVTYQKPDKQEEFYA
Method: Glioma C6 cells were plated on 6-well plates and grown to 70% confluency. Cells were incubated with 1 nM ^125I-GDNF for 2 hours in binding buffer (Dulbecco's modified Eagle's medium, 0.2% BSA and 15 mM Hepes, pH 7.2) on ice. Unbound ligand was removed by washing three times with ice-cold PBS. The chemical cross-linker ethyl-dimethyl-aminopropyl-carbodimide (EDAC) supplemented with N-hydroxysuccinimide (NHS) (Sigma) was incubated with cells for 20 min at room temperature in PBS. The reaction was quenched with TBS for 15 min and cells were lysed in lysis buffer (TBS, 1% Triton X-100, 1% NP-40, 2 mM EDTA, 1 mM PMSF and Complete protease inhibitor mixture from Roche Molecular Biochemicals). Cell lysates were immunoprecipitated with anti-syndecan-3 antibodies (Nolo et al., 1995) and resolved on 7.5% SDS-PAGE. Autoradiography was performed with BAS1500 (Fuji). For heparinase III or PI-PLC treatment cells were incubated with 10 mU/ml heparinase III or with 1 U/ml PI-PLC, respectively for one hour at 37° C., 5% CO2 before ^125I-GDNF addition.

[7] = apparent Kd from equilibrium response, read-out: Kd1
[8] = apparent Kd of second site, two-site fit, read-out: Kd2
[9] = pretreatment of cells with SFK inhibitor
[10] = GFLs cuvette, from equilibrium response, read-out: Kd (equilibrium)

IC50 (GDNF [1]): 4.3 ng/mL
Kd (GDNF [2]; [7]): 35.4 ± 7.5 nM
Kd (GDNF [2]; [8]): 9500 nM
Molecule: 2-O-desulfated heparin

IC50 (GDNF [1]): 1.3 ng/mL
Kd (GDNF [2]; [7]): 36.3 ± 4.6 nM
Kd (GDNF [2]; [8]): 18000 nM and 18100 nM
Molecule: 6-O-desulfated heparin

Molecule: CN(C)S(=O)(=O)c1ccc2c(c1)/C(=C/c1cc3c([nH]1)CCCC3)C(=O)N2 [SU6656, reference compound]
effect of inhibitor on neurite outgrowth on immobilized GDNF [3]: prevented neurite outgrowth
effect on SHEP cell adherence on immobilized GDNF (SHEP cells; [9]): did not impair their adherence
effect on SHEP cell spreading on immobilized GDNF (SHEP cells; [9]): diminished their spreading

Kd = kdis/ka [4]: 148 ± 39 nM
Kd [4]: 187 ± 34 nM
Kd = kdis/ka ([5]; GFLs cuvette): 44.7 ± 12.3 nM
Kd [5, 10]: 13 ± 3.9 nM
NaCl concentration at elution from heparin-sepharose column [6]: 1 to 1.5 M
binding to heparin-sepharose column [6]: bind strongly to heparin
ka (×10^−5) (M^−1s^−1) (syndecan-3 ectodomain): 6.3 ± 0.7 (×10^−5) M^−1s^−1
Molecule: ARTN: artemin, secreted growth factor, GDNF family ligand
ka (×10^−5) (M^−1s^−1) [4]: 0.09 (×10^−5) M^−1s^−1
kdis [4]: 0.0013 s⁻¹
ka (×10^−5) (M^−1s^−1) ([5]; GFLs cuvette): 8.0 (×10^−5) M^−1s^−1
kdis ([5]; GFLs cuvette): 0.042 s⁻¹
adherence and spreading of SHEP cells on immobilized protein (SHEP cells): induced adherence and spreading

IC50 (GDNF [1]): 2.3 ng/mL
Kd (GDNF [2]; [7]): 29.1 ± 6.4 nM
Kd (GDNF [2]; [8]): 11400 nM
Molecule: N-desulfated heparin

Kd = kdis/ka [4]: 59.4 ± 6.2 nM
Kd [4]: 47 ± 7 nM
Kd = kdis/ka ([5]; GFLs cuvette): 114 ± 44 nM
Kd [5, 10]: 23.7 ± 7.7 nM
Kd ([5]; SPR, dynamics, read-out: dynamics-derived Kd for heparin): > 100 nM
NaCl concentration at elution from heparin-sepharose column [6]: 1.5 M
binding to heparin-sepharose column [6]: bind strongly to heparin
ka (×10^−5) (M^−1s^−1) (syndecan-3 ectodomain): 7.5 ± 1.6 (×10^−5) M^−1s^−1
B1: NRTN: neurturin, secreted growth factor, GDNF family ligand (protein)
chain: ARLGARPCGLRELEVRVSELGLGYASDETVLFRYCAGACEAAARVYDLGLRRLRQRRRLRRERVRAQPCCRPTAYEDEVSFLDAHSRYHTVHELSARECACV
ka (×10^−5) (M^−1s^−1) [4]: 3.2 (×10^−5) M^−1s^−1
kdis [4]: 0.018 s⁻¹
ka (×10^−5) (M^−1s^−1) ([5]; GFLs cuvette): 1.9 (×10^−5) M^−1s^−1
kdis ([5]; GFLs cuvette): 0.022 s⁻¹
adherence and spreading of SHEP cells on immobilized protein (SHEP cells): induced adherence and spreading

effect on ^125I-GDNF binding to syndecan-3 on C6 cells (GDNF-syndecan-3 complex): displaced
B2: HB-GAM: ECM molecule, another syndecan-3-specific ligand (protein)
chain: GKKEKPEKKVKKSDCGEWQWSVCVPTSGDCGLGTREGTRTGAECKQTMKTQRCKIPCNWKKQFGAECKYQFQAWGECDLNTALKTRTGSLKRALHNADCQKTVTISKPCGKLTKPKPQAESKKKKKEGKKQEKMLD

Kd = kdis/ka [4]: 1072 ± 118 nM
Kd [4]: > 1000 nM
Kd ([5]; SPR, dynamics, read-out: Kd for heparin (dynamics)): 29100 nM
Kd ([5]; SPR, equilibrium, read-out: Kd for heparin (equilibrium)): 11100 nM
NaCl concentration at elution from heparin-sepharose column [6]: 0.5 M
binding to heparin-sepharose column [6]: does not
B3: PSPN: persephin, secreted growth factor, GDNF family ligand (protein)
chain: ALSGPCQLWSLTLSVAELGLGYASEEKVIFRYCAGSCPRGARTQHGLALARLQGQGRAHGGPCCRPTRYTDVAFLDDRHRWQRLPQLSAAACGCGG
neurite outgrowth on immobilized protein ([3]; 18 hours): failed to form processes
ka (×10^−5) (M^−1s^−1) [4]: 0.87 (×10^−5) M^−1s^−1
kdis [4]: 0.093 s⁻¹
ka (×10^−5) (M^−1s^−1) ([5]; GFLs cuvette): 0.02 (×10^−5) M^−1s^−1
kdis ([5]; GFLs cuvette): 0.064 s⁻¹
adherence and spreading of SHEP cells on immobilized protein (SHEP cells): failed to adhere and spread
